Measured values reported in US20220023399A1 (CONTRAFECT, published 2022).

Molecular target: T1, human serum albumin (human, UniProt P02768 25-609)
T1 construct: also called HSA; rHSA
Experiment: confocal/deconvolution microscopy; S. aureus ATCC 700699 pretreated with HSA 40 mg/mL, CF-301^RHD at 0.25×MIC

T1 sequence (P02768 25-609): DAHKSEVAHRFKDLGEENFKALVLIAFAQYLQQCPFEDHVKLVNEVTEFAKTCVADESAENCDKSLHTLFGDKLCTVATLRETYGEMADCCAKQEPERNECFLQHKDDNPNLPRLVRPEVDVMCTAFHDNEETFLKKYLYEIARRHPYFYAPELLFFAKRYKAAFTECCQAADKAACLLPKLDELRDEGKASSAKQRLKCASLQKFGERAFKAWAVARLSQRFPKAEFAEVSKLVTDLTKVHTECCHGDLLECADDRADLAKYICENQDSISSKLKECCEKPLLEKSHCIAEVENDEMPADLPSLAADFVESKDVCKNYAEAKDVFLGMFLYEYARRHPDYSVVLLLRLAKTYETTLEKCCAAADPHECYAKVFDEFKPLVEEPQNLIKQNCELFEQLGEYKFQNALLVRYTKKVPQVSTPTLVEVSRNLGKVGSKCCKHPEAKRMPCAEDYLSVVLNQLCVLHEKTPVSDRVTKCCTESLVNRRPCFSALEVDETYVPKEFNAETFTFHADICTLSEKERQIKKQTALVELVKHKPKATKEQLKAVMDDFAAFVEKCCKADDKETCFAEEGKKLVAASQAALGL

B1: rhodamine-labeled PlySs2 (CF-301) (enzyme)
chain: MTTVNEALNNVRAQVGSGVSVGNGECYALASWYERMISPDATVGLGAGVGWVSGAIGDTISAKNIGSSYNWQANGWTVSTSGPFKAGQIVTLGATPGNPYGHVVIVEAVDGDRLTILEQNYGGKRYPVRNYYSAASYRQQVVHYITPPGTVAQSAPNLAGSRSYRETGTMTVTVDALNVRRAPNTSGEIVAVYKRGESFDYDTVIIDVNGYVWVSYIGGSGKRNYVATGATKDGKRFGNAWGTFK
notes: also called CF-301^RHD; CF-301^RHOD
binding result: binds
